Consider one molecule from patent publication US20140343095A1, “Methods of Diagnosing and Treating Multiple Sclerosis” (The Brigham and Women's Hospital, Inc., priority 2009, published 2014).

The test relates to PARP-1. Description: FACS PARP-1 activity in innate and adaptive immune cells treated with HSP60 or 15-HC. The format is cell-based, human. Particulars: CD4+ T cells, CD8+ T cells, B cells of healthy controls; HSP60 1, 5, 10 ng/ml; 15-HC 1, 5, 10 ug/ml. The text has this:
FIGS. 17A-C are bar graphs showing that 15-HC, but not HSP60, activates PARP-1 in cells of the innate immune system. Mean PARP-1 activity as determined by FACS in classical monocytes (17A), inflammatory monocytes (17B) and dendritic cells (17C) of healthy controls (HC) treated with activated with HSP60, 15-HC or left untreated. The data are shown as mean fluorescence intensity (MFI)±SD of 5 samples/group.
FIGS. 18A-C are bar graphs showing that both 15-HC and HSP60 activate PARP-1 in cells of the adaptive immune system. Mean PARP-1 activity as determined by FACS in CD4+ T cells (18A), CD8+ T cells (18B) and B cells (18C) of healthy controls (HC) treated with activated with HSP60, 15-HC or left untreated. The data are shown as mean fluorescence intensity (MFI)±SD of 5 samples/group.
A new FACS-based method was developed to detect PARP-1 activation based on the intracellular detection of the PARP-1 product PAR with specific antibodies. Briefly, the cells were incubated with antibodies to CD16/32 to block unspecific antibody binding, and then stained for surface markers. […] The samples were then analyzed by FACS.
To investigate whether the increased activity of the TLR2/PARP-1 axis in SPMS patients resulted from increased levels of TLR2 ligands, the levels of 15-HC and HSP60 were measured in serum samples from healthy controls, RRMS and SPMS patients. […]

B1: HSP60: TLR2 agonist HSP60 (protein, UniProt P10809 27-573, looked up)
60 kDa heat shock protein, …: AKDVKFGADARALMLQGVDLLADAVAVTMGPKGRTVIIEQSWGSPKVTKDGVTVAKSIDLKDKYKNIGAKLVQDVANNTNEEAGDGTTTATVLARSIAKEGFEKISKGANPVEIRRGVMLAVDAVIAELKKQSKPVTTPEEIAQVATISANGDKEIGNIISDAMKKVGRKGVITVKDGKTLNDELEIIEGMKFDRGYISPYFINTSKGQKCEFQDAYVLLSEKKISSIQSIVPALEIANAHRKPLVIIAEDVDGEALSTLVLNRLKVGLQVVAVKAPGFGDNRKNQLKDMAIATGGAVFGEEGLTLNLEDVQPHDLGKVGEVIVTKDDAMLLKGKGDKAQIEKRIQEIIEQLDVTTSEYEKEKLNERLAKLSDGVAVLKVGGTSDVEVNEKKDRVTDALNATRAAVEEGIVLGGGCALLRCIPALDSLTPANEDQKIGIEIIKRTLKIPAMTIAKNAGVEGSLIVEKIMQSSSEVGYDAMAGDFVNMVEKGIIDPTKVVRTALLDAAGVASLLTTAEVVVTEIPKEEKDPGMGAMGGMGGGMGGGMF
For the molecule B1, the “PARP-1 activation in cells of the adaptive immune system (FIG. 18)” value is reported as “could activate”.
